According to publication PMC4874835 (Nature, 2016):

Columns and labels:
[1] = target: cMCU-ΔNTD (C. elegans MCU residues 167-316, N-terminal domain deleted) (C. elegans) (UniProt Q21121); experiment: SEC-MALS
[2] = target: cMCU-ΔNTD (C. elegans MCU residues 167-316, N-terminal domain deleted) (C. elegans) (UniProt Q21121); experiment: negative stain EM
[3] = target: cMCU-ΔNTD (C. elegans MCU residues 167-316, N-terminal domain deleted) (C. elegans) (UniProt Q21121); experiment: cross-linking
cross-linking = target: the molecule itself; experiment: cross-linking

Molecule | stoichiometry N [1] | stoichiometry N [2] | stoichiometry N [3] | stoichiometry N (cross-linking)
cMCU-ΔNTD (C. elegans MCU residues 167-316, N-terminal domain deleted) (from UniProt Q21121 167-316) (domain or fragment) | 5 | 5 | 5 | 
KQNFDIEKYNRLVTEVDELRNQLKRMRDPLE [CCH peptide (cMCU residues 288-316 plus C-terminal L and E)] |  |  |  | 5
